The test system of the experiment is human mammary epithelial cells. In words: Human mammary organoids stained for K8/K14, confocal microscopy. The format is cell-based. The following applies: Day 17 organoids; 50 ng/mL NRG3, 100 ng/mL AMH, 50 ng/mL GM-CSF. Here is the method: Organoids were recovered from Matrigel by incubating in Corning Cell Recovery Solution for 1 hour with rocking on ice. Organoids were then fixed in 4% paraformaldehyde (PFA) at room temperature for 1 hour and stored in PBS at 4° C. After PFA fixation, antigen retrieval was performed by boiling the organoids in sodium citrate buffer for 20 minutes at 96° C. Organoids were permeabilized in a 0.5% Triton-X-100 solution in PBS overnight at room temperature. Samples were blocked by incubating overnight in a solution of 5% goat serum.
Following fixation and permeabilization, the organoids were incubated sequentially in primary antibody and secondary antibody solutions (as summarized in the table below) overnight at room temperature. Samples were counterstained in a 2 μg/ml DAPI solution for 20 minutes and dehydrated through stepwise incubations in solutions with increasing methanol concentrations (50%, 80%, then 100% methanol). Organoids were embedded in a solution of 2:1 Benzyl Benzoate-Benzyl alcohol (BABB), transferred to Ibidi glass bottom chamber slides and imaged using a Leica SP8 confocal laser scanning microscope. […]
The effects of modulating signaling through BMP were analyzed across multiple experiments in terms of total cell count among formed organoids (FIG. 9A) and the lineage balance of the cells among formed organoids (FIG. 9B). […]

“Also recorded” adds a separate entry of the source.

B1: anti mullerian hormone (protein, UniProt P03971 452-560, looked up)
Muellerian-inhibiting factor: SAGATAADGPCALRELSVDLRAERSVLIPETYQANNCQGVCGWPQSDRNPRYGNHVVLLLKMQVRGAALARPPCCVPTAYAGKLLISLSEERISAHHVPNMVATECGCR
As to B1, the “lineage restriction of organoids formed (K8/K14 staining)” value was “bias the culture of mammary epithelial cells to form luminal-restricted organoids; also recorded: Luminal-restricted organoids were formed”.
